Biological target: T1, recombinant voltage-dependent anion channel-1 (human, UniProt P21796 1-283)
T1 construct: human voltage-dependent anion channel-1; cDNA amplified from pCMV6-XL5-VDAC-1 with primers designed on NM_003374, cloned into pET-28b by XhoI and NheI; band at about 32 kDa on SDS-PAGE; also called VDAC-1; hVDAC-1
Assay: SPR; Kringle 5 coupled to a CM5 sensor chip by amino coupling (180 RU); VDAC-1 injected at 0 to 280.00 μmol·L^-1; uncoupled cell as reference; 25°C, 40 μl·min^-1; regeneration with 10 mmol·L^-1 HEPES pH 7.4, 300 mmol·L^-1 NaCl
Settings: both partners purified

T1 sequence (P21796 whole entry): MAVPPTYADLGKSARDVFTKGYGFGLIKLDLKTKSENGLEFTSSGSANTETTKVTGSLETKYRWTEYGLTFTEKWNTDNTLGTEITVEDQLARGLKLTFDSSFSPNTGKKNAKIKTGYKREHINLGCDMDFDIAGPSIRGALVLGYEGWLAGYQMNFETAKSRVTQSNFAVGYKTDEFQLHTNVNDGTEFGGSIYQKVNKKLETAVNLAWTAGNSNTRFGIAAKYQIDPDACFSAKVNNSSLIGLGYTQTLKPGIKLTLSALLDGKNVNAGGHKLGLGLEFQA

Ka: 2430 M⁻¹
B1: recombinant plasminogen Kringle 5 (domain or fragment, human)
chain: DCMFGNGKGYRGKRATTVTGTPCQDWAAQEPHRHSIFTPETNPRAGLEKNYCRNPDGDVGGPWCYTTNPRKLYDYCDVPQCAAP
notes: fifth kringle domain of plasminogen, about 80 amino acid residues; expressed from pET-28b-hK5; band at about 8 kDa on SDS-PAGE; The vector pET-28b-hK5 was built in the authors' laboratory; neither the residue limits nor the end of the 6 x His tag are told; also called hK5; source: E. coli BL21 (DE3), soluble, purified (Ni2+-chelated Sepharose 6 Fast Flow, Sephadex G-25)

Reference: article PMC5066947, “Voltage-Dependent Anion Channel-1, a Possible Ligand of Plasminogen Kringle 5” (PLoS ONE, 2016)
